Test results reported in PMC6168507 (2018).

Target: LRP-1 (Homo sapiens, UniProt Q07954)
Experiment: ELISA

Chain of LRP-1 (Q07954 20-4544): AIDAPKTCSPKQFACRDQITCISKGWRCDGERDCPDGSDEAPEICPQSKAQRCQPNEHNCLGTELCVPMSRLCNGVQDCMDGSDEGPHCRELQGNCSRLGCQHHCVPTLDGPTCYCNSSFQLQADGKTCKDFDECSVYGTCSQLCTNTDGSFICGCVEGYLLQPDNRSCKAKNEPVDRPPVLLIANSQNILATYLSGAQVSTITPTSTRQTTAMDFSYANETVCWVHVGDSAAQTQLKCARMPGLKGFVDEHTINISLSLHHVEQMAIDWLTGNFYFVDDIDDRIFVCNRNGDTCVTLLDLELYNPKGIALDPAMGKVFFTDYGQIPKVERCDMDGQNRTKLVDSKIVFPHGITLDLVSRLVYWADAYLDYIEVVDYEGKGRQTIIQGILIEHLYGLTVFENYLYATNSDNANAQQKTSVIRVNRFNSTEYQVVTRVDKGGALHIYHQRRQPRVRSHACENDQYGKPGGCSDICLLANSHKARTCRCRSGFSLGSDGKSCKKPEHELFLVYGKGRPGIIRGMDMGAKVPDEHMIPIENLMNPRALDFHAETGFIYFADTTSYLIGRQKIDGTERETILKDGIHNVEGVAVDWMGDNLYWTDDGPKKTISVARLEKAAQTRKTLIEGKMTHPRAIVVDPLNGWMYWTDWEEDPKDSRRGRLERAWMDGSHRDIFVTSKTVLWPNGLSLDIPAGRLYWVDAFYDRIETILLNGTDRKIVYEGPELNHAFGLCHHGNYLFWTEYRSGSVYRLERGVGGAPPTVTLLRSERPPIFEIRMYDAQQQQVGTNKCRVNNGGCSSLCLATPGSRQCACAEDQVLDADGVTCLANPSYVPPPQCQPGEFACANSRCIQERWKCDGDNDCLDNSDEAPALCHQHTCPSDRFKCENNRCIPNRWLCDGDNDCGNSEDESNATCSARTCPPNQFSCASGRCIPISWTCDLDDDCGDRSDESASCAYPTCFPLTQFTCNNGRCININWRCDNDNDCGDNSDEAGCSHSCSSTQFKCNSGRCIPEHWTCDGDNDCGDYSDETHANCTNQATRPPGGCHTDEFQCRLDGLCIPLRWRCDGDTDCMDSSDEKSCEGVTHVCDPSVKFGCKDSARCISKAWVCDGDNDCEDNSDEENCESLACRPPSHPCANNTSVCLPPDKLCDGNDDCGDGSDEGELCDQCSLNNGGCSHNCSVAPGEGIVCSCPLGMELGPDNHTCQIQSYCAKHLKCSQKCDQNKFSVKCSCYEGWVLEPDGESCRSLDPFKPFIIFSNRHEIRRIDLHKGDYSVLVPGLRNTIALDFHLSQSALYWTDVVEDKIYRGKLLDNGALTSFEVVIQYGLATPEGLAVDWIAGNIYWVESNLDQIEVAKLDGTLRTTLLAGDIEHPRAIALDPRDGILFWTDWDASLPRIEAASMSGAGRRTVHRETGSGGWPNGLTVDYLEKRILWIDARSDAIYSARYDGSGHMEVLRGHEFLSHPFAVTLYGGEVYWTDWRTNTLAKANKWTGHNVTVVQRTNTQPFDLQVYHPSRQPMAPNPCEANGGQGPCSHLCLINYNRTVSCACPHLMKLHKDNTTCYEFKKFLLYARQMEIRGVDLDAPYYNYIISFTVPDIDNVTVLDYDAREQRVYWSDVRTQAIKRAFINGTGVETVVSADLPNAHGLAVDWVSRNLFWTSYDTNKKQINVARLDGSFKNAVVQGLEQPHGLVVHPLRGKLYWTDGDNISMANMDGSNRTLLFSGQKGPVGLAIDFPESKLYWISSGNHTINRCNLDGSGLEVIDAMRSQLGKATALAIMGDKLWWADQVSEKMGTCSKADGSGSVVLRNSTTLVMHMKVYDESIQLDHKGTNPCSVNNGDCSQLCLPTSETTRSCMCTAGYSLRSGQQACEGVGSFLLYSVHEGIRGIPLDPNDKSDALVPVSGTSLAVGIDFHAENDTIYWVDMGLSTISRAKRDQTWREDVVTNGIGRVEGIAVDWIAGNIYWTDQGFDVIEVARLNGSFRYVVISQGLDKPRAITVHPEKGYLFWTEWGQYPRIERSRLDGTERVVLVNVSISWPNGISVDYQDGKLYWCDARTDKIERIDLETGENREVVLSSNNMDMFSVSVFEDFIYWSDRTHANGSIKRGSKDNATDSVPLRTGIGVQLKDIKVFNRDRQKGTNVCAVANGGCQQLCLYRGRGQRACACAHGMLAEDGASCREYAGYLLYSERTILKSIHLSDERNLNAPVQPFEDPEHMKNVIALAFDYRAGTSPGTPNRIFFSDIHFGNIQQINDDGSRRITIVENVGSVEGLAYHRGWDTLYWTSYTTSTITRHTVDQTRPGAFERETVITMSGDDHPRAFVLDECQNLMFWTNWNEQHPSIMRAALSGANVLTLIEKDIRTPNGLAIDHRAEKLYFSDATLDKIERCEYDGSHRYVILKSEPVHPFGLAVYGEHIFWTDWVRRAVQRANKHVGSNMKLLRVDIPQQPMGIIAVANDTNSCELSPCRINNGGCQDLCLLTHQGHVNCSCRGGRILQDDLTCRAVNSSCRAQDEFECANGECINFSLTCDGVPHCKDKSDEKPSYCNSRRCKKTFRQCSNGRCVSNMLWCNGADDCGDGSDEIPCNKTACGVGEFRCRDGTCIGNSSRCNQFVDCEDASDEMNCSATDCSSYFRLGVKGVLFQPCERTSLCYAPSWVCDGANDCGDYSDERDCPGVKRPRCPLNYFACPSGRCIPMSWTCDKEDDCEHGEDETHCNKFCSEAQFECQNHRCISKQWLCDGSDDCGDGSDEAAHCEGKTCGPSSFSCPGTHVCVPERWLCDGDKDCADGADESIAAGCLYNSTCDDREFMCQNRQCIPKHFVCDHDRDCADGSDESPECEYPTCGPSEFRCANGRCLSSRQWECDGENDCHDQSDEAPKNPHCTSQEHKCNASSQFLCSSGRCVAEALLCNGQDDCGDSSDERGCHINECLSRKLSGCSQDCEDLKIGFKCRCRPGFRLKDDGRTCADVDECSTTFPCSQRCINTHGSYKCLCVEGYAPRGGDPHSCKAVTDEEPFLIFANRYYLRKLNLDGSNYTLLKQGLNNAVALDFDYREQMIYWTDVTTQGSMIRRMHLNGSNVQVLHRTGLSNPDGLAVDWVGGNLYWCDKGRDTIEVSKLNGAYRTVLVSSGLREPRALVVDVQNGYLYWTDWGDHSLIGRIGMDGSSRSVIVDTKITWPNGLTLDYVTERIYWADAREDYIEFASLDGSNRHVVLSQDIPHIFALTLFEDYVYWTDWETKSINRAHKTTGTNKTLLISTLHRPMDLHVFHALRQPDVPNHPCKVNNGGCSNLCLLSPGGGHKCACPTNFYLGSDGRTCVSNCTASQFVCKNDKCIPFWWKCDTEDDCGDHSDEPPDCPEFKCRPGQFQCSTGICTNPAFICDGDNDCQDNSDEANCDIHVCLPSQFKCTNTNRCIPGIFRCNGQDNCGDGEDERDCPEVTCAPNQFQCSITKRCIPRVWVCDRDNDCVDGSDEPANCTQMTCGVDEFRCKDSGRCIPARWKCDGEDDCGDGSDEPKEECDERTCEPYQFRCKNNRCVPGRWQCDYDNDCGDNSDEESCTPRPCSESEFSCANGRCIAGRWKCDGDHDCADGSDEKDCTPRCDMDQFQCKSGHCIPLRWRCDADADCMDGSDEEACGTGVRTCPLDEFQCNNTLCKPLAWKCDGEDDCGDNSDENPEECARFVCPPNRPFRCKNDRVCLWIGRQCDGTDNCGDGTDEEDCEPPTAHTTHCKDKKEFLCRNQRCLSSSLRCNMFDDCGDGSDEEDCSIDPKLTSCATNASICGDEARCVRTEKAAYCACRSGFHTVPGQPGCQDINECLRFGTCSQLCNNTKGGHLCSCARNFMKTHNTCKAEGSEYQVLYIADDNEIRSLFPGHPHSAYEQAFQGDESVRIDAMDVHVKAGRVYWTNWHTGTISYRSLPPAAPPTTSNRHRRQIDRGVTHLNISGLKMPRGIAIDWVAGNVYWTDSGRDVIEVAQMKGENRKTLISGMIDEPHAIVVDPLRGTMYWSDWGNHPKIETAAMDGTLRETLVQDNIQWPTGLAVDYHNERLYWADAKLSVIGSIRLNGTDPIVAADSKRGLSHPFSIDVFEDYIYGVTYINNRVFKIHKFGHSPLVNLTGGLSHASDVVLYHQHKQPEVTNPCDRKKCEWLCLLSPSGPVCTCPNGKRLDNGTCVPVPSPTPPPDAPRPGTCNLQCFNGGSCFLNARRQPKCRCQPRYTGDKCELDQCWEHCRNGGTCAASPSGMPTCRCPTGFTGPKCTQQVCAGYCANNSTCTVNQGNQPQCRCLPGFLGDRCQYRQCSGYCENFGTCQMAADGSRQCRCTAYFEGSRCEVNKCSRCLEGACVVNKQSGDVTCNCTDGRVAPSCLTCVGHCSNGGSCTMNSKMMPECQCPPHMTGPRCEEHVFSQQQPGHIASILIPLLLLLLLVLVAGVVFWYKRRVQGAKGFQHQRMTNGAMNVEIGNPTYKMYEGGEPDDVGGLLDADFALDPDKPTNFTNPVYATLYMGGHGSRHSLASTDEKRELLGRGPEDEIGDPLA

Kd: 16 nM
B1: TIMP-1 (protein)
chain: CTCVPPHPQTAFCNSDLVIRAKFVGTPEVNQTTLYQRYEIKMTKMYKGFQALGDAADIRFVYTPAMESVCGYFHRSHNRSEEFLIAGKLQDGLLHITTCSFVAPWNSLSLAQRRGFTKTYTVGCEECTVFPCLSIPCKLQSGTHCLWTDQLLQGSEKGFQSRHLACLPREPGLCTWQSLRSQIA
